{"source": "paper doi:10.1101/2021.03.03.433707", "biological_target": "MukB, full length, wild type (E. coli) (UniProt P22523)", "sequence (P22523 whole entry)": "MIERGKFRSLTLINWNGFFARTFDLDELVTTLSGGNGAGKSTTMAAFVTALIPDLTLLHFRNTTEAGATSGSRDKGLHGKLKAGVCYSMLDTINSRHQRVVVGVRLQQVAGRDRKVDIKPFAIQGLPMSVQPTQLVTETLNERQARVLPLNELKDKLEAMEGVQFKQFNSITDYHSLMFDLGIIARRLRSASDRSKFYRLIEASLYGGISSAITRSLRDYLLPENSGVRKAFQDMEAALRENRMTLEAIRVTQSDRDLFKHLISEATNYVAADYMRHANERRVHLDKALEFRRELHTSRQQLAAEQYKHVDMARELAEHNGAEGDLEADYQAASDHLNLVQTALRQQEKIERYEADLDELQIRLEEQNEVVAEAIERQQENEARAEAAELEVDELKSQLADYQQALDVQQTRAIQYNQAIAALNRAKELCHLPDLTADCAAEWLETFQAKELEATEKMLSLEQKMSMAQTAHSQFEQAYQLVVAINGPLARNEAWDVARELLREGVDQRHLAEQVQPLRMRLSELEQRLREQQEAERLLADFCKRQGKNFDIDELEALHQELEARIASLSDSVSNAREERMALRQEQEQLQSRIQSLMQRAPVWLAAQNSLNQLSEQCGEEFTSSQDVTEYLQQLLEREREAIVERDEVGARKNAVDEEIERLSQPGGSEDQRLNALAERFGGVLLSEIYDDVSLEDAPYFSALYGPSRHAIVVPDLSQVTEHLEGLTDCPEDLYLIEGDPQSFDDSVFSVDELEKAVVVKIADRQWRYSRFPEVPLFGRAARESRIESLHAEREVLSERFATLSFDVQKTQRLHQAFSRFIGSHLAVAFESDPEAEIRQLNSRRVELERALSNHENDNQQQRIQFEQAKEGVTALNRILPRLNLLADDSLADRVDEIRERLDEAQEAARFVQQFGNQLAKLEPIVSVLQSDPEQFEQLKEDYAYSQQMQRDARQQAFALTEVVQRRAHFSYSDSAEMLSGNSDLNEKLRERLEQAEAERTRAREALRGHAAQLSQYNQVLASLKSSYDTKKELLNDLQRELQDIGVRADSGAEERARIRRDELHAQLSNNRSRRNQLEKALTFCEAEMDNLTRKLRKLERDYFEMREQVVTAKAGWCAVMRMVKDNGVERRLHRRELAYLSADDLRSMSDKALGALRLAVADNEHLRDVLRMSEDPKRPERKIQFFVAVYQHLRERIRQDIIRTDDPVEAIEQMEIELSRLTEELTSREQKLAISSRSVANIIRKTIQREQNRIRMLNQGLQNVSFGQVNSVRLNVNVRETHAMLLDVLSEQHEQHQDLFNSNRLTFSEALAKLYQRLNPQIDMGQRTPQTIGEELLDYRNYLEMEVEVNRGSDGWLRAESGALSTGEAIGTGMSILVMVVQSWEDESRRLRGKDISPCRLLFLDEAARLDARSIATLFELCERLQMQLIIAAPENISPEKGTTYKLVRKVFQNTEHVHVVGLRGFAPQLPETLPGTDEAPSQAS", "test": "fluorescence correlation spectroscopy"}
{"substance": "MBP-ParC^CTD (ParC C-terminal domain with N-terminal MBP fusion) (domain or fragment)", "values": [{"measurement": "fold decrease in MatP-Cy3B binding to MukB at a 10-fold excess of competitor", "value": 3, "unit": "fold"}]}
